According to publication PMC8800115:
pKd: −log10 of the molar value.

Legend:
[1] = molecular target: K63-linked tetraubiquitin (UniProt P0CG48); experiment: ITC; MicroCal iTC200; proteins dialysed in 20 mM Hepes pH 7.5, 150 mM NaCl, 200 μM TCEP; 2-μl injections; who was in the cell is not given; ranges of Kd are from fits with N fixed to 1 (first value: active concentration in the cell varied, second: in the syringe); Kd of S470R and E467R/S470R called apparent
K63-linked diubiquitin = K63-linked diubiquitin (UniProt P0CG48); experiment: as above

- stoichiometry N (ASCC2 CUE domains per K63Ub4) [1]: 2
- pKd (K63-linked diubiquitin): 4.98 to 5.06
- stoichiometry N (ASCC2 CUE domain per K63Ub2) (K63-linked diubiquitin): 1
Substance: ASCC2 CUE domain (construct of the ITC experiments of Figure 2) (from UniProt Q9H1I8 463-525) (domain or fragment)
